{"source": "patent US20170369591", "system": "topoisomerase I", "sequence (chain, as listed by the source)": "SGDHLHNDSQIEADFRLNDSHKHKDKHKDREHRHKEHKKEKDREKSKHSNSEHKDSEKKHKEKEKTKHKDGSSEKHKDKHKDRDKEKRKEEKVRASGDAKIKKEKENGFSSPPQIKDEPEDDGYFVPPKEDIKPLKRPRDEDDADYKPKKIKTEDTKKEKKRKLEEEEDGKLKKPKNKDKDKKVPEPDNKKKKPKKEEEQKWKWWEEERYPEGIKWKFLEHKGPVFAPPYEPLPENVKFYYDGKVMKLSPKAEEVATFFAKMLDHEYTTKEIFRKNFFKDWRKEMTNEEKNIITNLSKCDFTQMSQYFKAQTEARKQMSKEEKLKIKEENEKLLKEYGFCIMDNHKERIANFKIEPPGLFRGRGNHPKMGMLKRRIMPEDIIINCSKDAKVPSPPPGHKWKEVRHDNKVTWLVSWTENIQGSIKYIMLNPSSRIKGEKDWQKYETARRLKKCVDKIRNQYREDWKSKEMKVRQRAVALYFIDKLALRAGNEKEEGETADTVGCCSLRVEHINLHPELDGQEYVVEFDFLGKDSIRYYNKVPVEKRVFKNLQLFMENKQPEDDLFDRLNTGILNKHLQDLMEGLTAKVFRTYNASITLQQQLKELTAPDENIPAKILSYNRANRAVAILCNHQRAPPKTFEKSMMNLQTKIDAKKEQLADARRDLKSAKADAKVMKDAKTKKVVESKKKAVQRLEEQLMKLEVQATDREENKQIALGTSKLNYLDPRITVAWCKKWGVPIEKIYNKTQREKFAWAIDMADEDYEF"}
{"substance": "BRCA1-Flag/BARD1", "values": [{"measurement": "in vitro ubiquitination, immunoblot with anti-ubiquitin", "result": "showed ubiquitination of topo I by BRCA 1"}]}
